B1: TPR t1 (parent)
chain: GACCAAUCUGCCCUCAGAGCUCGAGAACAUCUUCGGAUGCAGAGGAGGCAGGCUUCGGUGGCGCGAUAGCGCCAACGUCCUCAACCUCCAAUGCAUCCCACCACAUGAUGAUGCCUGAAGAGCCUUGGUUUUUUG

Variants of: B1
Experiment: polymerase ribozyme fitness, log enrichment relative to wild type (log ratio); higher = more active; in vitro selection for triplet polymerase activity
In short: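 After PCR construction and transcription, each subunit's mutant library from a heterodimeric triplet polymerase ribozyme was annealed with a biotinylated primer, the partner subunit and triplets. Incubation was frozen, at −7 °C, and extended constructs were gel-excised, bound to streptavidin beads and amplified by RT-PCR, in one selection round done in triplicate. Fitness is the logarithm of a genotype's enrichment divided by that of the wild type, from inverse-variance-weighted replicate averages of Illumina-sequenced inputs and outputs. The base of the logarithm is 2, and genotypes needed ≥10 input reads and ≥1 read per output.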

First: G42U G61U C82U G127A U133A
Second: C72G C82G A105C
The “polymerase ribozyme fitness (log ratio)” value of the first is higher: -3.41 for the first, -4.16 for the second.

Compared with C8G C28G, G42A C56G G122A is lower in “polymerase ribozyme fitness (log ratio)” value: -2.05 for the first, -3.21 for the second.

First: G19A A43U C49U C124U
Second: C12U U38G C72G
The “polymerase ribozyme fitness (log ratio)” value of the first is lower: -2.19 for the first, -0.666 for the second.

Compared with G127C G128U U131C, G17A G93U is lower in “polymerase ribozyme fitness (log ratio)” value: -1.37 for the first, -4.76 for the second.

Going from C8G G35U C123A to G45U G52A C72U G110C C123U, the “polymerase ribozyme fitness (log ratio)” value falls from -3.92 to -6.25.

First: G39A G47U
Second: C12G C40U
The “polymerase ribozyme fitness (log ratio)” value of the first is lower: -2.07 for the first, -1.51 for the second.

First: U9A C15U A41U G60U U92C C123A
Second: C12A U14G G17A C20A C94A
The “polymerase ribozyme fitness (log ratio)” value of the first is higher: -0.568 for the first, -3.13 for the second.

Going from G110A A119C to C20U G77A, the “polymerase ribozyme fitness (log ratio)” value rises from -2.25 to -1.35.

First: A29G A41C A119U U133G
Second: G48A G52A C101G
The “polymerase ribozyme fitness (log ratio)” value of the first is lower: -2.94 for the first, -2.71 for the second.

Compared with C12A U130C, C4U C15U is lower in “polymerase ribozyme fitness (log ratio)” value: -1.06 for the first, -1.62 for the second.

Compared with G44A C102U, C56U G61U is higher in “polymerase ribozyme fitness (log ratio)” value: -4.04 for the first, -2.88 for the second.

Going from U21C A111C to C64U C88A U96G U109C A121G, the “polymerase ribozyme fitness (log ratio)” value falls from 0.739 to -6.55.

Going from C13A G48A to C8A C101G, the “polymerase ribozyme fitness (log ratio)” value rises from -2.23 to -1.63.

First: G51U G69U C88A C104U C123U
Second: A43C U92G A111C C114A
The “polymerase ribozyme fitness (log ratio)” value of the first is higher: -0.711 for the first, -6.46 for the second.

Compared with A16U G48C U59C U126C, G113U U129G is lower in “polymerase ribozyme fitness (log ratio)” value: -2.91 for the first, -5.28 for the second.

Compared with C15U C79U, G45U G61A C88U A90C G113A is lower in “polymerase ribozyme fitness (log ratio)” value: -1.97 for the first, -3 for the second.

First: G10C G71A U81C A100U
Second: G17A C94G
The “polymerase ribozyme fitness (log ratio)” value of the first is higher: -3.62 for the first, -4.81 for the second.

Going from C4G G45A C114U to G47A U54C U59A C94G A118C U130C, the “polymerase ribozyme fitness (log ratio)” value falls from -4.45 to -5.44.

A43G G61A and A43G G61U are within 0.2 log units of each other in “polymerase ribozyme fitness (log ratio)” value: -1.27 for the first, -1.45 for the second.

First: C28G U38A C86U
Second: U87A G113C
The “polymerase ribozyme fitness (log ratio)” value of the first is lower: -5.02 for the first, -2.81 for the second.

First: G52U C62U C82A C102U C123G
Second: C22G G60U C85A
The “polymerase ribozyme fitness (log ratio)” value of the first is higher: -2.65 for the first, -4.53 for the second.

Compared with A50G A66G C73U C86A C115G, C22G G39C A50G G51A C115U is lower in “polymerase ribozyme fitness (log ratio)” value: -4.26 for the first, -5.65 for the second.

Going from A2G G52U A91U A95C to G42U G44A C56U G61C A68U C85U G110U U116C, the “polymerase ribozyme fitness (log ratio)” value falls from -3.47 to -6.46.

Compared with U59A A83G, C70A A121G is higher in “polymerase ribozyme fitness (log ratio)” value: -0.546 for the first, 0.93 for the second.

Compared with G51U U55A C72A U129A U133A, C34A G60C A100G is lower in “polymerase ribozyme fitness (log ratio)” value: -4.5 for the first, -5.76 for the second.

Going from A37U G57A U109G to A68G U112C, the “polymerase ribozyme fitness (log ratio)” value rises from -5.89 to -0.794.

Going from G63C U78A to C13A G44A C89U C102G, the “polymerase ribozyme fitness (log ratio)” value falls from -0.719 to -6.88.

Compared with C102U U125A U129C, C64U G120A is higher in “polymerase ribozyme fitness (log ratio)” value: -3.71 for the first, 0.482 for the second.

First: A84C U87A U96A
Second: C31G G57A G58C G63A U112C
The “polymerase ribozyme fitness (log ratio)” value of the first is higher: -1.65 for the first, -7.16 for the second.

Going from G17U G69U A84C to C12U G117A, the “polymerase ribozyme fitness (log ratio)” value rises from 0.342 to 0.626.

Compared with A5G C53A G61A C101U, C12U A75G U92A is lower in “polymerase ribozyme fitness (log ratio)” value: 0.0588 for the first, -2.45 for the second.

First: C20A C72A C101A
Second: G60A U78C C97G
The “polymerase ribozyme fitness (log ratio)” value of the first is lower: -5.69 for the first, -4.55 for the second.

C72G C73U C86G and G57U C98U G110A U112G are within 0.2 log units of each other in “polymerase ribozyme fitness (log ratio)” value: -5.02 for the first, -5.09 for the second.

Going from G48U U59A U78G U116A to A90C G107C G110C, the “polymerase ribozyme fitness (log ratio)” value falls from -3.29 to -6.73.

Compared with C34G U112A, A18U G52A C72A C73A U112A is higher in “polymerase ribozyme fitness (log ratio)” value: -4.47 for the first, -3.87 for the second.

Compared with U112G G135U, C13A A41G G63A U132C is lower in “polymerase ribozyme fitness (log ratio)” value: -1.01 for the first, -4.55 for the second.

First: C3U C72U C98A
Second: C15G C73U A75G G107U U109A C124G
The “polymerase ribozyme fitness (log ratio)” value of the first is lower: -5.34 for the first, -5.07 for the second.

First: C20G G93A
Second: C15G A37G A66U
The “polymerase ribozyme fitness (log ratio)” value of the first is higher: -5.03 for the first, -5.5 for the second.

First: U92C
Second: U21C G39C C56A
The “polymerase ribozyme fitness (log ratio)” value of the first is higher: -0.847 for the first, -1.44 for the second.

Compared with G39C U55A C56A U112C, A2U A5C C13U G48A G69A is lower in “polymerase ribozyme fitness (log ratio)” value: -0.17 for the first, -5.8 for the second.

Going from A2U C11U U21A to G44U U125A U131A, the “polymerase ribozyme fitness (log ratio)” value falls from -1.96 to -2.47.

First: G48U C53A C62U C82U U106A A108G
Second: C15U A18U C34U A41G G48C U106A A111G C124G
The “polymerase ribozyme fitness (log ratio)” value of the first is higher: -1.03 for the first, -6.92 for the second.

Reference: the RNAGym collection of RNA variant scans (doi:10.1073/pnas.2313332121)
